Test results reported in publication PMC13134614, “In vitro liquid-liquid phase separation induced by respiratory syncytial virus proteins and RNA” (Science Advances, 2025).

Key:
M2-1 [1] = target: T1, M2-1 (Respiratory syncytial virus, UniProt P04545 1-194); experiment: EMSA (native agarose gel, Amido black protein stain); 10 uM protein, 15 uM RNA; no band shift (none or too weak to detect); EMSA: 20 mM Tris pH 8, 150 mM NaCl, 30 min room temperature, 1% native agarose in 1X Tris-glycine; PhaseScan: 20 mM Tris-HCl pH 7.4, 150 mM NaCl, no crowding agent; conditions: protein: recombinant; tags: GST fusion vector pGEX-M2-1; chain copies: 4; single strand
T1 sequence: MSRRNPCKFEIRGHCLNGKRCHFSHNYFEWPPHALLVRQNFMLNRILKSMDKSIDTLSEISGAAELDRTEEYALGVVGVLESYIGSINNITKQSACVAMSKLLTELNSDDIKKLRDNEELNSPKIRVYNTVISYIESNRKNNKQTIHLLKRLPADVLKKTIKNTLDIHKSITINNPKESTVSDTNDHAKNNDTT

M2-1 [2] = target: T1, M2-1; experiment: EMSA (native agarose gel, Amido black protein stain); 10 uM protein, 15 uM RNA; clear band shift; EMSA: 20 mM Tris pH 8, 150 mM NaCl, 30 min room temperature, 1% native agarose in 1X Tris-glycine; PhaseScan: 20 mM Tris-HCl pH 7.4, 150 mM NaCl, no crowding agent; conditions: protein: recombinant; tags: GST fusion vector pGEX-M2-1; chain copies: 4; single strand
[3] = target: T2, RSV nucleoprotein N fused to mCherry (N-mCherry), N rings (respiratory syncytial virus (RSV), UniProt P03418 1-391); experiment: microfluidic diffusional sizing (MDS); 0.5 μM N-mCherry with increasing concentrations of unlabeled P or P domains, incubated 30 min in the dark; 150 mM NaCl, 20 mM tris pH 7.4; hydrodynamic radius of N in triplicate, Fluidity One-M; conditions: both partners purified
T2 construct: Nucleoprotein N of respiratory syncytial virus, 391 residues; from the plasmid pET-mCherry-N; The results call the sample of the MDS experiment 'N rings' (N-RNA oligomers holding bacterial RNA); The plasmid is named pET-mCherry-N, the methods of MDS say 'N-mCherry', so the end of mCherry is open; source: E. coli BL21 (DE3), purified (gel filtration)
T2 sequence (looked up): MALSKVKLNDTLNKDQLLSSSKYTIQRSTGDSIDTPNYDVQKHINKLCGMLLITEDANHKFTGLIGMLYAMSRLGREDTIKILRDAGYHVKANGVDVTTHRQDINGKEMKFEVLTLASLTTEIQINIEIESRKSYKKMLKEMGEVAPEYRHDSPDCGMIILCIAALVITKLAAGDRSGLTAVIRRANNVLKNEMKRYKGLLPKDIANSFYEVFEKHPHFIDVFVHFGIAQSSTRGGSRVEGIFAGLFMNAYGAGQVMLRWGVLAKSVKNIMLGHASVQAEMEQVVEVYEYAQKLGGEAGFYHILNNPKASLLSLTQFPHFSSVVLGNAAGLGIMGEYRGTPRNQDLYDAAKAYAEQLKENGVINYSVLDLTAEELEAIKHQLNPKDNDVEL

AGCGUAC (ssRNA, 5' OH) [5' OH 7-mer RNA]
binding result (M2-1 [1]): no binding

B1: 5' cap 7-mer RNA (ssRNA)
RNA: AGCGUAC
modifications: 5' cap (7mGppp, 2'-O-methyl on first nucleotide as generally described); cap G not counted in strand
binding result (M2-1 [2]): binds

B2: RSV phosphoprotein P residues 127-241 (domain or fragment, respiratory syncytial virus (RSV), UniProt P03421 127-241, looked up)
chain: TNDNITARLDRIDEKLSEILGMLHTLVVASAGPTSARDGIRDAMIGLREEMIEKIRTEALMTNDRLEAMARLRNEESEKMAKDTSDEVSLNPTSEKLNNLLEGNDSDNDLSLEDF
notes: Holds the tetramerization domain POD (131 to 151); source: E. coli BL21 (DE3), purified (gel filtration)
Kd [3]: 2600 ± 900 nM
